Reference: article PMC12327617

Molecular target: myeloperoxidase (MPO), two subunits MPOα and MPOβ (human (endogenous in HL-60))
Test: co-IP; anti-MPO-coated magnetic beads with HL-60 NET extract; H3.1-nucleosomes left after the IP quantified with the H3.1-nucleosome immunoassay, depletion against the unprocessed sample

percent depletion of H3.1-nucleosomes after IP anti-MPO: 30%
Substance: H3.1-nucleosomes (nucleosomes containing the histone variant H3.1) of NETs (from UniProt P68431 1-136; P62805 1-103; P0C0S8 1-130; P62807 1-126) (complex)
